# Assay results reported in publication PMC3156243, “Properties and Crystal Structure of Methylenetetrahydrofolate Reductase from Thermus thermophilus HB8” (PLoS ONE, 2011).
# Tests used:
# Experiment in all cases: purified protein
# purified protein [1] = substrate: Cc1cc2nc3c(=O)[nH]c(=O)nc-3n(C[C@H](O)[C@H](O)[C@H](O)COP(=O)(O)OP(=O)(O)OC[C@H]3O[C@@H](n4cnc5c(N)ncnc54)[C@H](O)[C@@H]3O)c2cc1C; conditions: active center of the β[…]α[…] barrel; Glu18 near the si-face of the isoalloxazine ring, Asp109 near C2; non-covalently bound; varied: cofactor
# purified protein [2] = substrate: NC(=O)C1=CN([C@@H]2O[C@H](COP(=O)(O)OP(=O)(O)OC[C@H]3O[C@@H](n4cnc5c(N)ncnc54)[C@H](O)[C@@H]3O)[C@@H](O)[C@H]2O)C=CC1; conditions: FAD; 25.0 °C
# purified protein [3] = substrate: Nc1nc2c(c(=O)[nH]1)N1CN(c3ccc(C(=O)N[C@@H](CCC(=O)O)C(=O)O)cc3)C[C@H]1CN2; conditions: FAD; 50.0 °C
protein,measurement,setting,value
MTHFR (methylenetetrahydrofolate reductase) (Thermus thermophilus HB8) (protein) MKIRDLLKARRGPLFSFEFFPPKDPEGEEALFRTLEELKAFRPAFVSITYGAMGSTRERSVAWAQRIQSLGLNPLAHLTVAGQSRKEVAEVLHRFVESGVENLLALRGDPPRGERVFRPHPEGFRYAAELVALIRERYGDRVSVGGAAYPEGHPESESLEADLRHFKAKVEAGLDFAITQLFFNNAHYFGFLERARRAGIGIPILPGIMPVTSYRQLRRFTEVCGASIPGPLLAKLERHQDDPKAVLEIGVEHAVRQVAELLEAGVEGVHFYTLNKSPATRMVLERLGLRPASGQP,Km,purified protein [1],5 µM
same,Km,purified protein [2],9.7 ± 2.1 µM
same,Km,purified protein [3],180 ± 23 µM
